Results published in the supplement of paper PMC11246515.
± gives the standard deviation of the averaged measurements.

Assay: total protein half-life in vivo (active degradation + dilution); higher = more stable protein
[1] = E. coli NCM3722 delta-clpP delta-lon delta-hslV, growth: N-lim chemostat, doubling time 6 h
[2] = E. coli NCM3722 delta-clpP, growth: N-lim chemostat, doubling time 6 h
[3] = E. coli NCM3722 delta-hslV, growth: N-lim chemostat, doubling time 6 h
[4] = E. coli NCM3722 delta-lon, growth: N-lim chemostat, doubling time 6 h
[5] = E. coli NCM3722 delta-smpB, growth: N-lim chemostat, doubling time 6 h
[6] = wild type E. coli NCM3722, growth: C-lim chemostat, doubling time 3 h
[7] = wild type E. coli NCM3722, growth: C-lim chemostat, doubling time 6 h
[8] = wild type E. coli NCM3722, growth: C-lim chemostat, doubling time 12 h
[9] = wild type E. coli NCM3722, growth: N-lim chemostat, doubling time 6 h
[10] = wild type E. coli NCM3722, growth: N-lim chemostat, doubling time 12 h
[11] = wild type E. coli NCM3722, growth: P-lim chemostat, doubling time 6 h
[12] = wild type E. coli NCM3722, growth: P-lim chemostat, doubling time 12 h

Sequence	total protein half-life in vivo [1]	total protein half-life in vivo [2]	total protein half-life in vivo [3]	total protein half-life in vivo [4]	total protein half-life in vivo [5]	total protein half-life in vivo [6]	total protein half-life in vivo [7]	total protein half-life in vivo [8]	total protein half-life in vivo [9]	total protein half-life in vivo [10]	total protein half-life in vivo [11]	total protein half-life in vivo [12]
MKIKAVGAYSAKQPLEPMDITRREPGPNDVKIEIAYCGVCHSDLHQVRSEWAGTVYPCVPGHEIVGRVVAVGDQVEKYAPGDLVGVGCIVDSCKHCEECEDGLENYCDHMTGTYNSPTPDEPGHTLGGYSQQIVVHERYVLRIRHPQEQLAAVAPLLCAGITTYSPLRHWQAGPGKKVGVVGIGGLGHMGIKLAHAMGAHVVAFTTSEAKREAAKALGADEVVNSRNADEMAAHLKSFDFILNTVAAPHNLDDFTTLLKRDGTMTLVGAPATPHKSPEVFNLIMKRRAIAGSMIGGIPETQEMLDFCAEHGIVADIEMIRADQINEAYERMLRGDVKYRFVIDNRTLTD	4.84 ± 0.2 h	4.8 ± 0.18 h	4.92 ± 0.16 h	5.05 ± 0.38 h	4.66 ± 0.61 h	3.225 ± 0.021 h	5.86 ± 0.58 h	11 ± 0.91 h	5.04 ± 0.17 h	8.89 ± 0.21 h	6.23 ± 0.59 h	12 ± 0.78 h
MKIKNILLTLCTSLLLTNVAAHAKEVKIGMAIDDLRLERWQKDRDIFVKKAESLGAKVFVQSANGNEETQMSQIENMINRGVDVLVIIPYNGQVLSNVVKEAKQEGIKVLAYDRMINDADIDFYISFDNEKVGELQAKALVDIVPQGNYFLMGGSPVDNNAKLFRAGQMKVLKPYVDSGKIKVVGDQWVDGWLPENALKIMENALTANNNKIDAVVASNDATAGGAIQALSAQGLSGKVAISGQDADLAGIKRIAAGTQTMTVYKPITLLANTAAEIAVELGNGQEPKADTTLNNGLKDVPSRLLTPIDVNKNNIKDTVIKDGFHKESEL	4.59 ± 0.8 h	5.33 ± 0.069 h	5.88 ± 0.42 h	4.43 h	6.1 ± 0.13 h	2.99 ± 0.08 h	5.41 ± 0.45 h	8.38 ± 1.2 h	5.53 ± 0.86 h	11.2 ± 2.2 h	5.733 ± 0.025 h	11.9 ± 0.15 h
MKIKSIRKAVLLLALLTSTSFAAGKNVNVEFRKGHSSAQYSGEIKGYDYDTYTFYAKKGQKVHVSISNEGADTYLFGPGIDDSVDLSRYSPELDSHGQYSLPASGKYELRVLQTRNDARKNKTKKYNVDIQIK	5.26 ± 0.85 h	6.18 ± 1.5 h	6.58 ± 0.55 h	5.92 ± 0.064 h	5.41 ± 2.6 h	3.4 ± 0.059 h	5.32 ± 0.57 h	9.98 ± 4 h	6.12 ± 0.28 h	11 ± 4.1 h	4.9 ± 0.38 h	11.1 ± 0.15 h
MKIKTRFAPSPTGYLHVGGARTALYSWLFARNHGGEFVLRIEDTDLERSTPEAIEAIMDGMNWLSLEWDEGPYYQTKRFDRYNAVIDQMLEEGTAYKCYCSKERLEALREEQMAKGEKPRYDGRCRHSHEHHADDEPCVVRFANPQEGSVVFDDQIRGPIEFSNQELDDLIIRRTDGSPTYNFCVVVDDWDMEITHVIRGEDHINNTPRQINILKALKAPVPVYAHVSMINGDDGKKLSKRHGAVSVMQYRDDGYLPEALLNYLVRLGWSHGDQEIFTREEMIKYFTLNAVSKSASAFNTDKLLWLNHHYINALPPEYVATHLQWHIEQENIDTRNGPQLADLVKLLGERCKTLKEMAQSCRYFYEDFAEFDADAAKKHLRPVARQPLEVVRDKLAAITDWTAENVHHAIQATADELEVGMGKVGMPLRVAVTGAGQSPALDVTVHAIGKTRSIERINKALDFIAERENQQ	5.79 ± 0.64 h	5.2 ± 0.2 h	5.5 ± 0.56 h	5.42 ± 0.13 h	5.06 ± 0.56 h	3.22 ± 0.47 h	6.28 ± 0.22 h	12.5 ± 0.98 h	5.34 ± 0.34 h	9.3 ± 0.16 h	6.23 ± 0.25 h	12.2 ± 0.93 h
MKILLIEDNQRTQEWVTQGLSEAGYVIDAVSDGRDGLYLALKDDYALIILDIMLPGMDGWQILQTLRTAKQTPVICLTARDSVDDRVRGLDSGANDYLVKPFSFSELLARVRAQLRQHHALNSTLEISGLRMDSVSHSVSRDNISITLTRKEFQLLWLLASRAGEIIPRTVIASEIWGINFDSDTNTVDVAIRRLRAKVDDPFPEKLIATIRGMGYSFVAVKK	5.88 ± 0.19 h	4.67 ± 0.22 h	5.28 ± 1 h	4.77 ± 0.42 h	4.91 ± 0.52 h	2.99 ± 0.052 h	–	10.4 ± 0.76 h	4.11 ± 0.2 h	7.422 ± 0.042 h	5.64 ± 0.063 h	11.9 ± 0.75 h
